Data: the supplement of paper PMC10567573
± gives the standard deviation.

Assay: protein stability index of a GFP-peptide fusion (GPS, HEK-293T) (PSI 1-6); higher = more stable
Conditions: c terminus: a fixed tail appended
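Note: 24-mer peptide tiles fused after GFP, lentivirally expressed, FACS-sorted into six equal bins by GFP/DsRed ratio, decoded by Illumina sequencing, PSI is the read-weighted mean bin number.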

| Sequence | protein stability index (treatment: DMSO) | protein stability index (treatment: MLN4924 1 uM, 8 h) |
| --- | --- | --- |
| TDSKELSMAKEVIAKELSKTYQET [ZBED1] | 4.91 ± 0.1 | 4.82 ± 0.57 |
| TEPDYKSKDWVFLNYTYKRFEGLT [STK38L] | 1.92 ± 0.19 | 2.39 ± 0.59 |
| TFSMPSDSHVSSCSEDWVGYQRKC [CD69] | 3.64 ± 0.23 | 3.51 ± 0.23 |
| TFVSGGCDKKAMVWDMRSGQCVQA [GNB5] | 2.68 ± 0.2 | 2.89 ± 0.46 |
| TFWASWRAFAQIGPARSGFRLETL [MIR22HG] | 2.73 ± 0.42 | 2.47 ± 0.41 |
| TGANTKKPEDTAEDLTAKRKRMKM [FAM9B] | 5.4 ± 0.28 | 5.15 ± 0.51 |
| TGTALRFRVLCTAPAKYTVFDAEG [MOSPD3] | 2.49 ± 0.95 | 2.54 ± 0.41 |
| TKGHPRAVSQPFRLSSSLQGSAVT [CDC14A] | 3.49 ± 0.41 | 3.54 ± 0.28 |
| TKLHDIDGVPHLILIASRDIAAGE [KMT5A] | 2.36 ± 0.33 | 2.33 ± 0.25 |
| TLDVYNPFETREPPPAYEPPAPAP [SCAMP3] | 4.51 ± 0.18 | 4.61 ± 0.2 |
| TLPAGADFLMCYSVAEGYYSHRET [CASP6] | 2.5 ± 0.15 | 2.51 ± 0.4 |
| TLVSRAHQLVMEGYNWCHDRNVVT [PPP2CA] | 2.27 ± 0.23 | 2.21 ± 0.13 |
| TPVVLVGNKSDLKQLRQVTKEEGL [RIT1] | 4.54 ± 0.15 | 4.59 ± 0.32 |
| TQHLPRECLPENLGGYVKIDLATW [PTPN9] | 2.34 ± 0.4 | 2.31 ± 0.41 |
| TRHEGSFQVPVLCAVMNVVFITIL [CD69] | 2.76 ± 0.55 | 2.63 ± 0.58 |
| TSRDRKDHMVRMHLYPADFRFDKP [ZNF511] | 2.87 ± 0.31 | 3.22 ± 0.14 |
| TSRGGPWVGTGLAAALAGLVGLAT [CPOX] | 1.89 ± 0.93 | 2.49 ± 0.087 |
| TSRRARASKKTAQPWVEVVLALRN [MFSD9] | 2.33 ± 0.12 | 2.58 ± 0.19 |
| TSSSTVVSTQRSQDHFHVFVGDLS [TIA1] | 3.34 ± 0.071 | 3.42 ± 0.23 |
| TVFYIPEDHKPGTFPKALTNGSFS [DLC1] | 2.86 ± 0.14 | 3.11 ± 0.26 |
| TVGTPDYIAPEVFMQTGYNKLCDW [STK38L] | 2.82 ± 0.16 | 2.97 ± 0.37 |
| TYKLKCKALQEENRDLRKASVTIQ [CCDC6] | 3.64 ± 0.3 | 3.7 ± 0.21 |
| TYQVHDYLRSKLCSLYENDCIFDK [PPP2R2C] | 2.22 ± 0.26 | 2.32 ± 0.48 |

| Sequence | protein stability index (treatment: DMSO) | protein stability index (treatment: MLN4924 1 uM, 8 h) |
| --- | --- | --- |
| VAAGEKSILTDNPTWIIDPIDGTT [IMPA1] | 3.92 ± 0.19 | 4.03 ± 0.2 |
| VCGQNWGIVEAMVVCRQLGLGFAS [LOXL2] | 3.33 ± 0.11 | 3.18 ± 2 |
| VCYTACATLKGPDSHYGTKGLKKV [BTBD1] | 3.06 ± 0.42 | 3.21 ± 0.23 |
| VDCTEIFGGNPRFLSLHRAHLGEE [ZNF263] | 3.11 ± 0.4 | 3.24 ± 0.25 |
| VDHQGVSWYHWKGFEFSVPFTEMK [TNXB] | 2.45 ± 0.55 | 2.49 ± 0.74 |
| VDMECQTDAFLDRPPTPLFIPAKT [RSPH3] | 4.01 ± 0.1 | 4.19 ± 0.061 |
| VEAVKNELRRQAPPPPPPSRGGPP [WASL] | 4.91 ± 0.29 | 4.92 ± 0.078 |
| VFGTSLTARVIIPLLKDEGFAVKA [GFOD1] | 2.7 ± 0.57 | 2.34 ± 0.25 |
| VFPAPVVGSGGATSGKLLLEADEL [ZBTB22] | 4.93 ± 0.25 | 4.73 ± 0.22 |
| VFQHGDNSFRLLFDVVVILTCSLS [MCOLN1] | 3.25 ± 0.13 | 3.32 ± 0.21 |
| VFSFDLHEPLSKERVEAFSDGVYA [TMEM175] | 3.1 ± 0.24 | 3.24 ± 0.28 |
| VGDEFLNCKLATRAKDFLPADIQA [SNX8] | 2.88 ± 0.26 | 2.92 ± 0.27 |
| VGITVLNLCALSVDRYRAVASWSR [EDNRA] | 2.86 ± 0.66 | 2.87 ± 0.6 |
| VGQQVHNLLLTYLIVTSLLLLPGL [ARL6IP1] | 3.27 ± 0.26 | 3.46 ± 0.57 |
| VGSDEEDDSGKDKKKKTKKIKEKY [HSP90AB1] | 5.31 ± 0.47 | 5.32 ± 0.42 |
| VHSERKLLPLVTLCDGNPRRPSPV [SCNN1D] | 3.58 ± 0.23 | 3.56 ± 0.49 |
| VHVSESSDDDEEEEENIGCEEKAK [ACBD3] | 5.55 ± 0.32 | 5.62 ± 0.12 |
| VIQAVQKSEEGHPFKAYLDVDITL [RTN3] | 2.23 ± 0.59 | 2.18 ± 0.39 |
| VIRGLNTIPLFVQLLYSPIENIQR [CTNNB1] | 2.76 ± 0.3 | 2.68 ± 0.4 |
| VKALEDFEDLCDRVFSDEDSELDN [FAM9B] | 5.34 ± 0.26 | 5.28 ± 0.27 |
| VKCFNDLKAEELLLKIHEVSTVSH [CASP6] | 2.23 ± 0.24 | 2.44 ± 0.16 |
| VKEELSQKFDTLYAILDEKKSELL [TRIM63] | 3.6 ± 0.41 | 3.58 ± 0.17 |
| VKFISNPPSMVAAGSVVAAVQGLN [CCND1] | 2.43 ± 0.62 | 2.42 ± 0.24 |

| Sequence | protein stability index (treatment: DMSO) | protein stability index (treatment: MLN4924 1 uM, 8 h) |
| --- | --- | --- |
| VKMLGSPVDSVLFYAITTLHNLLL [CTNNB1] | 2.47 ± 0.59 | 2.48 ± 0.6 |
| VLDSLLLTLLPQLQEAWQQRTPSP [RSAD1] | 2.85 ± 0.052 | 3.27 ± 0.43 |
| VLEHSLDREEEAIHHLVLTASDGG [PCDHGA10] | 4.66 ± 0.18 | 4.84 ± 0.17 |
| VLERAACLRRCKRTLPAFQVPYPP [P3H4] | 2.16 ± 0.29 | 2.16 ± 0.19 |
| VLLEEPLPLETARESPSFKLEPME [ZNF263] | 4.02 ± 0.24 | 4.284 ± 0.038 |
| VLPPRQPSALVPSVTEYRLDGHTI [MYBL2] | 3.35 ± 0.35 | 3.41 ± 0.24 |
| VPGIFCAGADLKERAKMSSSEVGP [AUH] | 3.59 ± 0.34 | 3.64 ± 0.29 |
| VPHNGSSEATLPAQMSTLHVSPPP [PDLIM4] | 4.87 ± 0.17 | 4.73 ± 0.19 |
| VQGPGVVGEFPIISPGRVYEYTSC [FBXO3] | 2.72 ± 0.52 | 3 ± 0.32 |
| VQQQKLAEERRRQNLQEEKERKLE [FAF2] | 4.87 ± 0.15 | 5.19 ± 0.43 |
| VQRVMAQALGIPATECEFVGSLPV [LPCAT4] | 2.78 ± 0.25 | 2.76 ± 0.3 |
| VRAHQDTQRRTSMGGTQQQFVEGV [CTNNB1] | 4.232 ± 0.018 | 4.24 ± 0.14 |
| VRKKERGREEKCVWKHGITPPLKN [TAF7L] | 3.85 ± 0.41 | 3.83 ± 0.3 |
| VRLAARQEDAPMIEPLVPEEKMET [EPB41L3] | 4.9 ± 0.16 | 5.17 ± 0.24 |
| VRLKPALQRLDFSVRGYMMSKQRE [RETREG3] | 2.64 ± 0.48 | 2.7 ± 0.44 |
| VRLRTLLCKVLGVLFSVAGGLFVG [CLCN6] | 2.87 ± 0.14 | 2.88 ± 0.17 |
| VRRQRSADEQLHCAGKAKRSGGHA [ESR2] | 4.51 ± 0.32 | 4.75 ± 0.13 |
| VRSQYPNQPTRFGKLLLRLPSLRT [NR2F2] | 2.42 ± 0.16 | 2.49 ± 0.23 |
| VSKGAESSRSSEESSSDSGSSDSE [BRD3] | 5.61 ± 0.24 | 5.6 ± 0.41 |
| VTHTLTMRQRISRVEESALRALRE [PPEF2] | 3.5 ± 0.38 | 3.86 ± 0.012 |
| VTLALFFVLYFLLACWTYGISVPS [CLCN6] | 2.95 ± 0.27 | 2.98 ± 0.19 |
| VTLKTAVDGPDLEMLTGQERVALA [FKBP8] | 3.7 ± 0.23 | 3.81 ± 0.24 |
| VVEEILELHIHRLRYLSSIWNILD [PKD2L1] | 3.29 ± 0.65 | 3.04 ± 0.3 |

| Sequence | protein stability index (treatment: DMSO) | protein stability index (treatment: MLN4924 1 uM, 8 h) |
| --- | --- | --- |
| VVMNLDSRLLIFPLYICCNFLYIS [GMCL1] | 2.59 ± 0.59 | 2.94 ± 0.36 |
| VWMDDFKSHVYMAWNIPMSNPGVD [GALNT9] | 2.21 ± 0.3 | 2 ± 0.2 |
| VYIFATCLGLSYDGLLGDNQIMPK [MAGEA6] | 2.82 ± 0.52 | 2.44 ± 0.44 |
| VYSNTIQSIIAIIRAMGRLKIDFG [GNAI1] | 2.7 ± 0.53 | 2.13 ± 0.29 |
| VYVSNMTDKLVTPGKYFSAAEYHA [IQUB] | 2.14 ± 0.47 | 1.96 ± 0.15 |
| WCSVAYWEHRTRVGRLYAVYDQAV [SMAD6] | 2.44 ± 0.43 | 2.18 ± 0.16 |
| WHDTCFVCAICQINLEGKTFYSKK [PDLIM7] | 2.24 ± 0.29 | 2.21 ± 0.15 |
| WKITIYDQENFQGKRMEFTSSCPN [CRYBA1] | 2.26 ± 0.38 | 2.15 ± 0.23 |
| WTAPLVMRTTNLDNRCKLFDSPSL [CDC25A] | 2.4 ± 0.17 | 2.52 ± 0.28 |
| YAYSNGIDYKTTTILLDGRRVRLE [RAB40C] | 2.68 ± 0.3 | 2.56 ± 0.34 |
| YDCGEDFYRSTAPSEDIWKKFELV [MYCL] | 2.96 ± 0.19 | 3.33 ± 0.22 |
| YDFIVTKARGKSGPLFNFDVHDDV [FAM50A] | 2.65 ± 0.23 | 2.78 ± 0.45 |
| YDRRVIRGNTYALQTGPLLGRPDS [RSPH3] | 3.29 ± 0.24 | 3.56 ± 0.25 |
| YGFYDECLRKYGNANVWKYFTDLF [PPP2CA] | 2.5 ± 0.21 | 2.67 ± 0.38 |
| YGNGMRKSPEMPVILEVSLEGSHD [RTP4] | 3.58 ± 0.26 | 3.97 ± 0.41 |
| YHSQDELGGFSHWGRLTSYSGGGY [PKD2L1] | 2.66 ± 0.6 | 2.52 ± 0.34 |
| YKCSWCGKSFSQNTNLHTHQRTHT [ZNF75A] | 4.65 ± 0.45 | 4.29 ± 0.54 |
| YKEKFGITDLPRIDVSKREPPPVK [EFHC1] | 3.67 ± 0.38 | 4.04 ± 0.23 |
| YKLVGSPPWKEAFRQRCLERMRNS [RPAIN] | 2.74 ± 0.32 | 2.98 ± 0.52 |
| YKQLGSAGEGLPQVYYFGPCGKYN [CSNK1G1] | 3.05 ± 0.65 | 2.16 ± 0.2 |
